Tests used:
[1] = test system: ALS ssDNA (GGGGCC hexanucleotide repeat expanded at C9ORF72); assay: Electrophoretic mobility shift assay with ALS ssDNA; format: binding; settings: for binding of ALS repeat (qualitative): DNA concentration courses
Protocol: Infrared oligonucleotides representing a GGGGCC hexanucleotide repeat expanded at C9ORF72 in ALS patients were custom ordered and are referred to as ALS ssDNA. 4% polyacrylamide gel electrophoresis was performed using IR-labeled oligonucleotides and imaged using the Li-Cor Odyssey IR imaging instrumentation and software.
Electrophoretic Mobility Shift Assay-Various combinations of Purα, Purβ, TZIP, and IR-labeled oligonucleotides were prepared in the 5× Johnson binding buffer (Bergemann, Andrew D and Johnson, Edward M (1992), The HeLa Pur Factor Binds Single-Stranded DNA at a Specific Element Conserved in Gene Flanking Regions and Origins of DNA Replication. Molecular and Cellular Biology, vol 12:3 (1257-1265), incorporated by reference herein in its entirety), adjusted to 5 mM DTT, 5 mM EDTA, and 0.5% Tween 20. 4% polyacrylamide gel electrophoresis was performed on samples and imaged with the Li-Cor Odyssey instrumentation and software. Densitometry was performed on the DNA concentration course experiments using the Li-Cor Odyssey software.
A Kd value obtained for Purβ was complex and not readily interpretable.

[2] = test system: FXS ssDNA (G-rich trinucleotide DNA repeats at FMR1); assay: Electrophoretic mobility shift assay with FXS ssDNA; format: binding
Excerpt: A GE Microspin GST purification module was used to purify GST-tagged Purα and Purβ from bacterial lysate. Polyacrylamide gel electrophoresis with SDS-Page gels and molecular markers were used to verify that GST, Purα, and Purβ were expressed and purified. Expressed proteins were detected using antibodies against Purα and Purβ, including monoclonal mouse anti-Pur antibody developed in Johnson laboratory (clone 10B12) and polyclonal antibody against Purβ (Abcam). Polyacrylamide gel electrophoresis with TBE buffer was used for gel-mobility shift assay. Infrared-labeled oligonucleotides representing G-rich trinucleotide DNA repeats at FMR1 in patients with Fragile X Syndrome (FXS) were custom ordered and are referred to herein as FXS ssDNA. Infrared-labeled oligonucleotide substrates in agarose and polyacrylamide gels were detected through the use of the Odyssey (LICOR) instrumentation and software. […] When Purα and Purβ are combined (FIG. 17), by increasing the amount of Purβ, the DNA is shifted more to the top of the gel. Therefore, there is more binding of the proteins to the DNA. […] In FIG. 19, TZIP enhances the mobility shift of ssDNA FXS in the presence of Purα.

NIH3T3 cells = assay: Purα injected into NIH3T3 cells at cell-cycle transition points; format: cell-based
Protocol: Purα was injected into NIH3T3 cells during various cell-cycle transition points to determine the effects of elevated Purα levels at different phases of the cell cycle. […] In FIG. 2, the clear bar represents dividing cells, the black bar represents non-dividing cells, and the shaded bar represents rapid cell death.

[3] = test system: ras-transformed and non-transformed NIH3T3 cells; assay: Cell cycle progression (FACS DNA content) in cells stably transfected to over-express Purα; format: cell-based; settings: two to five-fold elevated levels of Purα in stably transfected cell lines
Excerpt: Cells were released from a double thymidine block, which arrests cells upon entry to S phase, into normal growth medium. Samples were subjected to fluorescence-activated cell sorting to determine cellular DNA content.
Stably transfected or co-transfected pools and transfected clones are shown on the right.
A pool of ras-transformed cells were stably transfected or co-transfected with the following: (a) pBABE, an empty vector; (b) pBABE+pBK, both empty expression vectors; (c) pBABE+pBKPurα, to over-express Purα; (d) pBABE+pBKPurα^low to express Purα at a level near that of endogenous Purα; (e) pBABE+pBKPurα^high to express Purα at a level nearly 5-fold that of endogenous Purα; (f) pEBV, an empty expression vector (g) pEBVPurα to over-express Purα. 4N indicates completion of DNA synthesis.

[4] = test system: ras-transformed NIH3T3 cells; assay: Anchorage independent growth of ras-transformed NIH3T3 cells; format: cell-based; settings: pBABE and pBKPurα transfected, puromycin selected
Excerpt: Purα also antagonizes colony formation and anchorage-independent growth related to ras-transformation of NIH3T3 cells. Ras-transformed cells were transfected with pBABE (empty vector) and either pBK (empty vector) or pBKPurα expression construct and selected for puromycin resistance. Referring to FIG. 4, panel A (pBABE) and panel B (pBABE+pBK) show anchorage independent cell growth.

[5] = molecular target: T1, p110^RB, the hypophosphorylated form of Rb (Homo sapiens, UniProt P06400); assay: GST bead pull-down of Rb, anti-Rb blot; format: binding; settings: protein on glutathione-agarose beads
T1 construct: In proliferating cells, the Rb protein existed in several states of phosphorylation; endogenous in cells; host or cells: WR2E3 cells (inferred as the source of the extract put on the beads)
T1 sequence (P06400 1-928): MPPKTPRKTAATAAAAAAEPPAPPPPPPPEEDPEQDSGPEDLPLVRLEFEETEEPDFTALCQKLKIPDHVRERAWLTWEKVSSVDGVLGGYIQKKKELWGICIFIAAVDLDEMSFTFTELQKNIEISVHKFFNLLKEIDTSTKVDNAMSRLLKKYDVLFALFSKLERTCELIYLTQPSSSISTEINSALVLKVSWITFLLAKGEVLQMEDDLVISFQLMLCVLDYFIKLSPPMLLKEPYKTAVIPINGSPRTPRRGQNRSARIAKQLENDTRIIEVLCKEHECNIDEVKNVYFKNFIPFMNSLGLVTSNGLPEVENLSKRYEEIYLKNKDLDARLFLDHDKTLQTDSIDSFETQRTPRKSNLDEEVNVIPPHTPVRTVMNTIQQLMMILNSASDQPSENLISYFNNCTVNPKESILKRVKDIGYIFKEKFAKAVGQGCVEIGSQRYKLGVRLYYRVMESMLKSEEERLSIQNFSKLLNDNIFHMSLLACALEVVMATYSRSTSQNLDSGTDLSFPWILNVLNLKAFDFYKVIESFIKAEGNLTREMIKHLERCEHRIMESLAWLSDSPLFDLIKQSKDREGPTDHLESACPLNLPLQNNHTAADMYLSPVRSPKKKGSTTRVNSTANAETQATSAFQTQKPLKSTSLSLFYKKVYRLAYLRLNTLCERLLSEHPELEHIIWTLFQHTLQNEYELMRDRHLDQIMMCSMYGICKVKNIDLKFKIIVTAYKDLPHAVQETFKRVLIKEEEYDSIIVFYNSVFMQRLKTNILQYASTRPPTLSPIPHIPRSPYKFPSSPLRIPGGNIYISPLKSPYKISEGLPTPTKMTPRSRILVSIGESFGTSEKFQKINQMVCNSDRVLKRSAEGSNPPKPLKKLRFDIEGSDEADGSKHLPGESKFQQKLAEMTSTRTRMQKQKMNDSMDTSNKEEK
Protocol: Rb was detected in extracts of monkey CV-1 cells complexed with Purα. These complexes can be immunoextracted from cell lysates using monoclonal antibodies to either Purα or Rb.
Proteins expressed in bacteria were bound to glutathione-agarose beads. Unfused GST was prepared in the same manner for use as a control. Beads containing equivalent amounts of each protein were used for each lane. Beads were collected, washed, and bound proteins were subjected to electrophoresis. The proteins were then blotted and probed with anti-Rb monoclonal antibody.
In contrast, binding of Rb to control GST alone was nil. IPP represents Rb immunoprecipitated from WR2E3 cells using rabbit polyclonal anti-Rb antibody. In proliferating cells, the Rb protein existed in several states of phosphorylation, the hypophosphorylated state, p110^RB, migrating more rapidly on SDS gels (lane 1).

B1: Purβ: Pur family protein, GST-tagged, purified from bacterial lysate (protein, UniProt Q96QR8 2-312, looked up)
Transcriptional regulator …: ADGDSGSERGGGGGPCGFQPASRGGGEQETQELASKRLDIQNKRFYLDVKQNAKGRFLKIAEVGAGGSKSRLTLSMAVAAEFRDSLGDFIEHYAQLGPSSPEQLAAGAEEGGGPRRALKSEFLVRENRKYYLDLKENQRGRFLRIRQTVNRGGGGFGAGPGPGGLQSGQTIALPAQGLIEFRDALAKLIDDYGGEDDELAGGPGGGAGGPGGGLYGELPEGTSITVDSKRFFFDVGCNKYGVFLRVSEVKPSYRNAITVPFKAWGKFGGAFCRYADEMKEIQERQRDKLYERRGGGSGGGEESEGEEVDED
modifications: GST tag
notes: Pur family protein, GST-tagged, purified from bacterial lysate
binding of ALS repeat (qualitative) [1]: bound the ALS repeat to a much smaller degree | binding / mobility shift of ssDNA FXS (qualitative) [2]: does not shift the ssDNA FXS as strongly as Purα

B2: Purα: sequence-specific single-stranded DNA-binding protein; GST-tagged, purified from bacteria in the EMSA (protein)
chain: MADRDSGSEQGGAALGSGGSLGHPGSGSGSGGGGGGGGGGGGSGGGGGGAPGGLQHETQELASKRVDIQNKRFYLDVKQNAKGRFLKIAEVGAGGNKSRLTLSMSVAVEFRDYLGDFIEHYAQLGPSQPPDLAQAQDEPRRALKSEFLVRENRKYYMDLKENQRGRFLRIRQTVNRGPGLGSTQGQTIALPAQGLIEFRDALAKLIDDYGVEEEPAELPEGTSLTVDNKRFFFDVGSNKYGVFMRVSEVKPTYRNSITVPYKVWAKFGHTFCKYSEEMKKIQEKQREKRAACEQLHQQQQQQQEETAAATLLLQGEEEGEED
modifications: left off: a dimerising Fc or GST
notes: GST-tagged, purified from bacteria in the EMSA
effect on cell cycle / cell fate (NIH3T3 cells; introduction of Purα in G1 phase): arrested cells at the G1-S boundary, causing programmed cell death | effect on cell cycle / cell fate (NIH3T3 cells; introduction of Purα in later phases, such as G2-M phase): arrested, but did not prevent, complete replication of the genome | S phase entry and progression [3]: retarded entry into and progression through S phase | anchorage independent growth [4]: repressed anchorage independent growth | binding of ALS repeat (qualitative) [1]: strongly bind the ALS repeat in low concentrations | Kd ([1]; densitometry of DNA concentration course): 16 nM

B3: Gst-Purα: GST fusion of Purα expressed in bacteria, bound to glutathione-agarose beads (protein)
chain: B2 chain
modifications: left off: a dimerising Fc or GST
binding to Rb [5]: bind exclusively to the hypophosphorylated forms of p110^RB
